Article PMC2702006

Columns and labels:
human Hsp90β (human) = human Hsp90β (human) (UniProt P08238); assay: cross-linking
yeast Hsp90 L15A (yeast) = yeast Hsp90 L15A (yeast) (UniProt P02829)
yeast Hsp90 L18A (yeast) = yeast Hsp90 L18A (yeast) (UniProt P02829)
yeast Hsp90 L18R (yeast) = yeast Hsp90 L18R (yeast) (UniProt P02829)

Chain of human Hsp90β, P08238 1-724 (natural protein; other documents disagree on this pair) (P08238 whole entry): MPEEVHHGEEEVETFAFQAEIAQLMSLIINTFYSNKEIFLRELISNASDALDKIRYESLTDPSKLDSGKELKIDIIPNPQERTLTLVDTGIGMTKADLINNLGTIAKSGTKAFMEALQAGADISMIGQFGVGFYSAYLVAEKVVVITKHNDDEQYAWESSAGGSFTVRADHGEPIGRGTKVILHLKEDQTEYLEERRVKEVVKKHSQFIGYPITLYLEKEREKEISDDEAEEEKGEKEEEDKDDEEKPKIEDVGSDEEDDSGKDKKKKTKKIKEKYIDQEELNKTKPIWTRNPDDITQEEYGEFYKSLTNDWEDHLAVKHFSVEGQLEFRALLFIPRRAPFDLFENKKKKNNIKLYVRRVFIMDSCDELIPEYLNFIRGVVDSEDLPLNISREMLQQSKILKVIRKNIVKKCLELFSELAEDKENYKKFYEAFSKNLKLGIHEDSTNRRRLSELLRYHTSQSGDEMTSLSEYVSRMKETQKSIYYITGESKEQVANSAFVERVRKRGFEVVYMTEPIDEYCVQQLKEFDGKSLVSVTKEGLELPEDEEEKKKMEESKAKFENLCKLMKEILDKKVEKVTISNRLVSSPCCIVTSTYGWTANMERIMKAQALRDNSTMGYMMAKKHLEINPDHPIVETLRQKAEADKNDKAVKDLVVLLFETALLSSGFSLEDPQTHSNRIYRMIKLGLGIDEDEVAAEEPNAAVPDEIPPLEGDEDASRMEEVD

Substance: human Hsp90β, P08238 1-724 (natural protein; other documents disagree on this pair)
- stoichiometry N (human Hsp90β (human)): 2

Substance: yeast Hsp90 L15A (from UniProt P02829 1-709) (natural protein)
- ATPase activity relative to wild-type yeast Hsp90 (yeast Hsp90 L15A (yeast)): 157

Substance: yeast Hsp90 L18A (from UniProt P02829 1-709) (natural protein)
- ATPase activity relative to wild-type yeast Hsp90 (yeast Hsp90 L18A (yeast)): 103

Substance: yeast Hsp90 L18R (from UniProt P02829 1-709) (natural protein)
- ATPase activity relative to wild-type yeast Hsp90 (yeast Hsp90 L18R (yeast)): 42
